Test results reported in article PMC2150824 (The Journal of Cell Biology, 2001).

B1: endogenous Hip1R stripped from CCVs with 0.5 M Tris-HCl (natural protein, UniProt Q9JKY5 1-1068, looked up)
chain: MNSIKNVPARVLSRRPGHSLEAEREQFDKTQAISISKAINSQEAPVKEKHARRIILGTHHEKGAFTFWSYAIGLPLSSSSILSWKFCHVLHKVLRDGHPNVLHDYQRYRSNIREIGDLWGHLRDQYGHLVNIYTKLLLTKISFHLKHPQFPAGLEVTDEVLEKAAGTDVNNIFQLTVEMFDYMDCELKLSESVFRQLNTAIAVSQMSSGQCRLAPLIQVIQDCSHLYHYTVKLMFKLHSCLPADTLQGHRDRFHEQFHSLKNFFRRASDMLYFKRLIQIPRLPEGPPNFLRASALAEHIKPVVVIPEEAPEEEEPENLIEISSAPPAGEPVVVADLFDQTFGPPNGSMKDDRDLQIENLKREVETLRAELEKIKMEAQRYISQLKGQVNGLEAELEEQRKQKQKALVDNEQLRHELAQLKALQLEGARNQGLREEAERKASATEARYSKLKEKHSELINTHAELLRKNADTAKQLTVTQQSQEEVARVKEQLAFQMEQAKRESEMKMEEQSDQLEKLKRELAARAGELARAQEALSRTEQSGSELSSRLDTLNAEKEALSGVVRQREAELLAAQSLVREKEEALSQEQQRSSQEKGELRGQLAEKESQEQGLRQKLLDEQLAVLRSAAAEAEAILQDAVSKLDDPLHLRCTSSPDYLVSRAQAALDSVSGLEQGHTQYLASSEDASALVAALTRFSHLAADTIVNGAATSHLAPTDPADRLMDTCRECGARALELVGQLQDQTVLPRAQPSLMRAPLQGILQLGQDLKPKSLDVRQEELGAMVDKEMAATSAAIEDAVRRIEDMMSQARHESSGVKLEVNERILNSCTDLMKAIRLLVMTSTSLQKEIVESGRGAATQQEFYAKNSRWTEGLISASKAVGWGATQLVESADKVVLHMGKYEELIVCSHEIAASTAQLVAASKVKANKNSPHLSRLQECSRTVNERAANVVASTKSGQEQIEDRDTMDFSGLSLIKLKKQEMETQVRVLELEKTLEAERVRLGELRKQHYVLAGGMGTPSEEEPSRPSPAPRSGATKKPPLAQKPSIAPRTDNQLDKKDGVYPAQLVNY
B2: yeast coronin (natural protein)
chain: MSGKFVRASKYRHVFGQAAKKELQYEKLKVTNNAWDSNLLKTNGKFIAVNWNASGGGAFAVIPIEEVGKAPDQVPLFRGHTAQVLDTDFDPFNDHRIASGSDDSKIGIWDIPENYKFHDHVDEDGEPIDIKPVKFLTGHARKVGHVLYHPVAENVLASSSGDYTVKLWNVETGKDMITLKHPDMVTSMSFSYDGNYLATVARDKKLRVWNIREEKIVSEGPAHTGAKNQRVVWLGNSDRLATTGFSKLSDRQIGIWDAFNIEKGDLGGFYTVDQSSGILMPFYDEGNKILYLVGKGDGNIRYYEFQNDELFELSEFQSTEAQRGFAVAPKRMVNVKENEVLKGFKTVVDQRIEPVSFFVPRRSEEFQEDIYPDAPSNKPALTAEEWFSGKSVEGPILVSMRSIYDGSAPSFHEAKRPQQPTTQETALEEKKEQPKVEKPISESEKEVKQEAPKSPSPLKSASSSSTINHVLKEDNSINKLLKKSSDIDQVNNAEDPSRDTSGWEEADDEPAPIKIETPVTPTETKKDRTPKVEPSKELKPEPVSIATDRKQEQSLPQEEKSSEKTKSPEQEKSATPPSSITAAKTAITASSKEEPSAARTSPKSLGLKKSVEKLSTLVLQLEDVVDKLTKANLDKDERLLKLEQKIGELSK

Legend:
[1] = biological target: the molecule itself; test: SEC
[2] = biological target: F-actin (rabbit skeletal muscle actin) (rabbit, UniProt P68135 1-377); test: co-sedimentation

Binder | stoichiometry N [1] | binding result [2]
B1 | 2 | 
B2 |  | binds
